Values quoted from earlier work as cited in PMC5245780.

Biological target: Hax1 isoform 1 (Rattus norvegicus) (UniProt Q7TSE9)

Kd: 3.8 nM
Substance: Hax1 isoform 1 (from UniProt Q7TSE9)
